Test results as given in patent US20180369375A1 (Merck Sharp & Dohme, published 2018).

T1: human LAG3 (expressed on cells) (human)
T1 construct: also called Hu LAG3; human LAG3 transfectants
T1 chain: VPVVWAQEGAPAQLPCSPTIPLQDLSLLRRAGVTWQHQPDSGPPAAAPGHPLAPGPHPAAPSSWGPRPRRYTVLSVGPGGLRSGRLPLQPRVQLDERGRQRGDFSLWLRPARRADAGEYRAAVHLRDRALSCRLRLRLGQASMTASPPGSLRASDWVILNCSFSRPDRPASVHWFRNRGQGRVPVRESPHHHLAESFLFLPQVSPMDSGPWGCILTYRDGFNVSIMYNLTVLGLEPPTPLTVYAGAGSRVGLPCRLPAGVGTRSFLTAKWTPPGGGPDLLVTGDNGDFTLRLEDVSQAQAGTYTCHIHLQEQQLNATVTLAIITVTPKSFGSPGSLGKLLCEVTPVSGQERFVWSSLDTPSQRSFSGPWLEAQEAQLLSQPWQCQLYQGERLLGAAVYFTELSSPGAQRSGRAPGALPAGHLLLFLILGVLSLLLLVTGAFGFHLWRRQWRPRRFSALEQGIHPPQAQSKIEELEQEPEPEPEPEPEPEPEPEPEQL


How the values were obtained:
[1] = molecular target: T1, human LAG3 (expressed on cells); experiment: cell-based KinExA; BaF/3 cells stably transfected with human LAG3; n = 1
Description: (§1) The affinities of the anti-LAG3 antibodies for human and cynomolgous monkey LAG3 were determined using a cell based Kinetic Exclusion Assay (KinExA). Cell based KinExA can be used to measure the affinity of a molecule for a binding partner on a cell surface (Rathanaswami et al. Analylitical Biochemistry 373(1): 52-60 (2008); Xie et al. J. Immunol. Methods 304 (1-2): 1-14 (2005)). In this case, BaF/3 cells were stably transfected with human or cynomolgus monkey LAG3 proteins. Transfected cells or the parental BaF/3 control cell line were grown to a density of 1.7×10⁶ to 3.2×10⁶ cells per ml at 37° C., 120 RPM, 5% CO₂, in 1×RPMI 1640 media with 10% FBS, 10 ng/ml IL-3, 5 μg/ml puromycin. Cells were concentrated, mixed with 15 pM or 150 pM antibody in cell culture media and incubated 24 to 48 hours at room temperature while rotating at 20 to 30 RPM. Cells were present at a top concentration of 2×10⁷ cells per ml (parental BaF/3 or cynomolgus LAG3 transfectants) or 1×10⁷ cells per ml (human LAG3 transfectants) and diluted in a 2-fold, 18 member series. The cells were pelleted and free antibody in the supernatant was measured using a KinExA 3200 instrument (Sapidyne, Idaho, USA). […] Antibody on the beads was labeled with 1.5 μg/ml Alexa Fluor® 647 conjugated goat anti-human (Fab′)₂ (Jackson ImmunoResearch Laboratories), washed and the fluorescent signal was read all using the KinExA™ 3200. […]

[2] = molecular target: T1, human LAG3 (expressed on cells); experiment: cell-based KinExA; BaF/3 cells stably transfected with human LAG3; n = 2
Description: as §1

[3] = molecular target: T1, human LAG3 (expressed on cells); experiment: cell-based KinExA; BaF/3 cells stably transfected with human LAG3; average of n = 1-3
Description: as §1

[4] = molecular target: T1, human LAG3 (expressed on cells); experiment: cell-based KinExA; BaF/3 cells stably transfected with human LAG3; n = 3
Description: as §1

[5] = molecular target: T1, human LAG3 (expressed on cells); experiment: cell-based KinExA; human LAG3 on BaF/3 cells; ratio to ADI-12126
[6] = molecular target: T2, human LAG3-His tagged recombinant protein (human); experiment: SPR, Biacore T200; antibody captured, human LAG3-His as analyte, 1:1 Langmuir fit; n = 1
T2 construct: also called human LAG3-His protein; recombinant human LAG3
Description: (§2) Approximately 4000 RU of […], Fragment Specific (Jackson ImmunoResearch Catalog #115-006-071, Lot 81313) was immobilized via amine coupling chemistry onto a Series S CM4 sensor chip, catalog number BR-1005-34. Human anti-human LAG3 clones were injected over the immobilized anti-human surfaces at 1 ug/mL for a capture level of 40 RU. HBS-EP+ buffer (BR-1006-69) was used as the running buffer with a flow rate of 30 μL/min.
(§3) Varying concentrations of human LAG3-His protein ranging from 0.15 nM to 18.8 nM, at a flow rate of 40 μL/min were injected over the antibody surfaces. Following each injection cycle, the Series S CM4 chip surface was regenerated using one six second injection of 10 mM Glycine pH 1.5 solution followed by an injection of 12.5 mM NaOH solution at a flow rate of 60 μL/min.
(§4) Background subtraction binding sensorgrams were used for analyzing the rate constant of association (kₐ) and dissociation (kd), and the equilibrium dissociation constant KD. The resulting data sets were fitted with a 1:1 Langmuir Binding Model using the Biacore T200 evaluation software (version 2.0).
Target sequence in this assay (P18627 23-450): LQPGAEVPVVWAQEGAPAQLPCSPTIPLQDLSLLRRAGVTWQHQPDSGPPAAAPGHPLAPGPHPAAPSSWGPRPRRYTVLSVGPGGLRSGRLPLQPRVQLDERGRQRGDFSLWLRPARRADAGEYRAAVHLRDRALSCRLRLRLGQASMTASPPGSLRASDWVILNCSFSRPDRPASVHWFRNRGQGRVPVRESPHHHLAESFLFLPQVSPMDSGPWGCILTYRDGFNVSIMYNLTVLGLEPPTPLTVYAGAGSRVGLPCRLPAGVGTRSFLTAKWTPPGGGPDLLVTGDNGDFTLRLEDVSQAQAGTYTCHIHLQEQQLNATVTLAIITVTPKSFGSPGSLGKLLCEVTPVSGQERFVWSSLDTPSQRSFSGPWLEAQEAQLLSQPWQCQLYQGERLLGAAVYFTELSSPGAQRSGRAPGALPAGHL

[7] = molecular target: T2, human LAG3-His tagged recombinant …; experiment: SPR, Biacore T200; antibody captured, human LAG3-His as analyte, 1:1 Langmuir fit; n = 2
Description: as §2, §3, §4
Target sequence in this assay (P18627 23-450): as above

[8] = molecular target: T2, human LAG3-His tagged recombinant …; experiment: SPR, Biacore T200; antibody captured, human LAG3-His as analyte, 1:1 Langmuir fit; average
Description: as §2, §3, §4
Target sequence in this assay (P18627 23-450): as above

[9] = molecular target: T2, human LAG3-His tagged recombinant …; experiment: SPR, Biacore T200; fold against the parental antibody, as printed in this row
Description: as §2, §3, §4

Binder | Kd [1] [nM] | Kd [2] [nM] | Kd [3] [nM] | Kd [4] [nM] | KD/KD ref (ref = ADI-12126) [5] | Kd [6] [nM] | Kd [7] [nM] | Kd [8] [nM] | Fold weaker than ADI-12126 (M57, M115) IgG4 S228P/Kappa [9] [fold]
ADI-12126 M57G/M115L (antibody, V domains shown) VH: not shown VL: EIVLTQSPATLSLSPGERATLSCRASQSVSSYLAWYQQKPGQAPRLLIYDASNRATGIPARFSGSGSGTDFTLTISSLEPEDFAVYYCQQASIWPLTFGGGTKVEIKR | 0.015 | 0.025 | 0.018 | 0.013 | 0.8 |  |  |  | 
ADI-12126 (Q1E, M57V, M115L) IgG4 S228P/Kappa (antibody, V domains shown) VH: EVQLVQSGAEVKKPGASVKVSCKASGYTFTGYYMHWVRQAPGQGLEWMGWINANSGVTNYAQKFQGRVTMTRDTSISTAYMELSRLRSDDTAVYYCARDIYDSSDQLNVWGQGTLVTVSS VL: EIVLTQSPATLSLSPGERATLSCRASQSVSSYLAWYQQKPGQAPRLLIYDASNRATGIPARFSGSGSGTDFTLTISSLEPEDFAVYYCQQASIWPLTFGGGTKVEIKR |  |  |  |  |  | 0.282 | 0.25 | 0.266 | 
ADI-12126 (Q1E, M57T, M115L) IgG4 S228P/Kappa (antibody, V domains shown) VH: EVQLVQSGAEVKKPGASVKVSCKASGYTFTGYYMHWVRQAPGQGLEWMGWINANSGTTNYAQKFQGRVTMTRDTSISTAYMELSRLRSDDTAVYYCARDIYDSSDQLNVWGQGTLVTVSS VL: EIVLTQSPATLSLSPGERATLSCRASQSVSSYLAWYQQKPGQAPRLLIYDASNRATGIPARFSGSGSGTDFTLTISSLEPEDFAVYYCQQASIWPLTFGGGTKVEIKR |  |  |  |  |  | 0.066 | 0.065 | 0.066 | 
ADI-12126 (Q1E, M57S, M115L) IgG4 S228P/Kappa (antibody, V domains shown) VH: EVQLVQSGAEVKKPGASVKVSCKASGYTFTGYYMHWVRQAPGQGLEWMGWINANSGSTNYAQKFQGRVTMTRDTSISTAYMELSRLRSDDTAVYYCARDIYDSSDQLNVWGQGTLVTVSS VL: EIVLTQSPATLSLSPGERATLSCRASQSVSSYLAWYQQKPGQAPRLLIYDASNRATGIPARFSGSGSGTDFTLTISSLEPEDFAVYYCQQASIWPLTFGGGTKVEIKR |  |  |  |  |  | 0.134 | 0.119 | 0.127 | 
ADI-12126 M57A/M115L (antibody, V domains shown) VH: EVQLVQSGAEVKKPGASVKVSCKASGYTFTGYYMHWVRQAPGQGLEWMGWINANSGATNYAQKFQGRVTMTRDTSISTAYMELSRLRSDDTAVYYCARDIYDSSDQLNVWGQGTLVTVSS VL: EIVLTQSPATLSLSPGERATLSCRASQSVSSYLAWYQQKPGQAPRLLIYDASNRATGIPARFSGSGSGTDFTLTISSLEPEDFAVYYCQQASIWPLTFGGGTKVEIKR | 0.017 | 0.03 | 0.021 | 0.017 | 0.9 |  |  |  | 

Second part, the binder after the results:

Kd [1] [nM] | Kd [2] [nM] | Kd [3] [nM] | Kd [4] [nM] | KD/KD ref (ref = ADI-12126) [5] | Kd [6] [nM] | Kd [7] [nM] | Kd [8] [nM] | Fold weaker than ADI-12126 (M57, M115) IgG4 S228P/Kappa [9] [fold] | Binder
 |  |  |  |  | 0.032 | 0.034 | 0.033 |  | ADI-12126 (Q1E, M57Y, M115L) IgG4 S228P/Kappa (antibody, V domains shown) VH: EVQLVQSGAEVKKPGASVKVSCKASGYTFTGYYMHWVRQAPGQGLEWMGWINANSGYTNYAQKFQGRVTMTRDTSISTAYMELSRLRSDDTAVYYCARDIYDSSDQLNVWGQGTLVTVSS VL: EIVLTQSPATLSLSPGERATLSCRASQSVSSYLAWYQQKPGQAPRLLIYDASNRATGIPARFSGSGSGTDFTLTISSLEPEDFAVYYCQQASIWPLTFGGGTKVEIKR
 |  |  |  |  | 0.013 | 0.013 | 0.013 |  | ADI-12126 (Q1E, M57A, M115L) IgG4 S228P/Kappa (antibody, V domains shown) VH: EVQLVQSGAEVKKPGASVKVSCKASGYTFTGYYMHWVRQAPGQGLEWMGWINANSGATNYAQKFQGRVTMTRDTSISTAYMELSRLRSDDTAVYYCARDIYDSSDQLNVWGQGTLVTVSS VL: EIVLTQSPATLSLSPGERATLSCRASQSVSSYLAWYQQKPGQAPRLLIYDASNRATGIPARFSGSGSGTDFTLTISSLEPEDFAVYYCQQASIWPLTFGGGTKVEIKR
 |  |  |  |  | 0.011 | 0.01 | 0.01 | 4.6 | ADI-12126 (Q1E, M57G, M115L) IgG4 S228P/Kappa (antibody, V domains shown, The parental residues are Q1, M57, M115) VH: not shown VL: EIVLTQSPATLSLSPGERATLSCRASQSVSSYLAWYQQKPGQAPRLLIYDASNRATGIPARFSGSGSGTDFTLTISSLEPEDFAVYYCQQASIWPLTFGGGTKVEIKR
